Values of other authors as cited in article PMC3978290.
Several values for one entry are separate records, joined by “and”; a condition that tells them apart may be missing. Equal values may be shown once.

Assays:
C3b C3b (Homo sapiens) = C3b C3b (Homo sapiens) (UniProt P01024); test: SPR
C3u C3u (Homo sapiens) = C3u C3u (Homo sapiens) (UniProt P01024); test: sedimentation velocity
[1] = molecular target: Complement factor H (Homo sapiens) (UniProt P08603); test: sedimentation equilibrium
[2] = molecular target: C-reactive protein (Homo sapiens) (UniProt P02741); test: SPR
Chain of C-reactive protein (Homo sapiens) (P02741 19-223): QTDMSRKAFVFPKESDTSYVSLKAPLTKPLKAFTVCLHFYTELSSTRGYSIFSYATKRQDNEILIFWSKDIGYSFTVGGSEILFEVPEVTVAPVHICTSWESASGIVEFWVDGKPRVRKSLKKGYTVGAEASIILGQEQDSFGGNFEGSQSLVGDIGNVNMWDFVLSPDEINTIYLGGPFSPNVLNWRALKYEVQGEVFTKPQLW

Chain of C3b C3b (Homo sapiens) (P01024 566-670): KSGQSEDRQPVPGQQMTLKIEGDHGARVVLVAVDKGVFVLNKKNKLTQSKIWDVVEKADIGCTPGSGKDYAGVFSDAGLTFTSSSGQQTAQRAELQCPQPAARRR
Chain of Complement factor H (P08603 19-1231): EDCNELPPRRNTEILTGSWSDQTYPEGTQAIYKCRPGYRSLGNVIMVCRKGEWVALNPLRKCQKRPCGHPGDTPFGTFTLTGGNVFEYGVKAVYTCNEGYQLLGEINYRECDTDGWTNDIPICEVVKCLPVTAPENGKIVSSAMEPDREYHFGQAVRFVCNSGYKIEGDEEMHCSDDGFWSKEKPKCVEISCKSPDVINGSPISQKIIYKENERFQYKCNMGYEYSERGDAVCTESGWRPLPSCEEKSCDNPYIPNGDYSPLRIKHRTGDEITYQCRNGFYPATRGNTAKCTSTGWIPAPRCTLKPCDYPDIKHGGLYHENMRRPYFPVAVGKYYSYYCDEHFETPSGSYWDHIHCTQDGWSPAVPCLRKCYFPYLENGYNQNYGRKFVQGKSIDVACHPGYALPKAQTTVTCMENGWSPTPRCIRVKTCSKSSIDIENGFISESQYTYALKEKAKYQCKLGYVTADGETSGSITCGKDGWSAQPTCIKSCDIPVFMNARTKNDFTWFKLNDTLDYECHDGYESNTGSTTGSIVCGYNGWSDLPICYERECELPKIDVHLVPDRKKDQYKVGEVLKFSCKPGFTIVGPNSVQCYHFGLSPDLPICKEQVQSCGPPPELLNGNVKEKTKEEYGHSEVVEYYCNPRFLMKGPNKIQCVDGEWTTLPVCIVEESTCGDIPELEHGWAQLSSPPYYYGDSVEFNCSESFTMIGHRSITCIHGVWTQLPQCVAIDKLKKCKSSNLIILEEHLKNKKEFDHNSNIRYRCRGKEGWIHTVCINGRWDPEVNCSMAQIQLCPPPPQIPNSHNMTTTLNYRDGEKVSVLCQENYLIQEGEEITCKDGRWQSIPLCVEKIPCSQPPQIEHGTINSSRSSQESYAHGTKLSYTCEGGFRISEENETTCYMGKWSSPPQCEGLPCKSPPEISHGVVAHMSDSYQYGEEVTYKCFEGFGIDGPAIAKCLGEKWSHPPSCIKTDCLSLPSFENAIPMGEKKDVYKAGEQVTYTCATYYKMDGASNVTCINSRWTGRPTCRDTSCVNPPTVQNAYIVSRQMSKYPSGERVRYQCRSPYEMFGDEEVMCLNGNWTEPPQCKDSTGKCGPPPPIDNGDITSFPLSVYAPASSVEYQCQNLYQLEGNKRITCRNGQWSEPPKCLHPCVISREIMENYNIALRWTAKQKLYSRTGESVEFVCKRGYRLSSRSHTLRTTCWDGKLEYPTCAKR
Chain of Complement factor H SCR-19/20 (P08603 1107-1231): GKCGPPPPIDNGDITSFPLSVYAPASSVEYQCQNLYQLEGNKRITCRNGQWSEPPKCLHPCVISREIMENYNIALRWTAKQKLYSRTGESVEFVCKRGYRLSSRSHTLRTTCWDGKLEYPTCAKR
Chain of Complement factor H SCR-1/4 SCR-1/4 (P08603 19-264): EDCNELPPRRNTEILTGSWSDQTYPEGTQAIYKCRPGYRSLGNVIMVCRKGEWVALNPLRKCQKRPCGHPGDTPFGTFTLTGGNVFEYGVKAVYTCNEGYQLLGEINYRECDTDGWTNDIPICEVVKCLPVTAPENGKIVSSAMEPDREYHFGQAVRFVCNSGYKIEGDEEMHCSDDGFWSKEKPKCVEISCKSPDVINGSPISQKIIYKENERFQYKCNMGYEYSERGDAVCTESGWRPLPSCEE
Chain of C3u C3u (Homo sapiens) (P01024 23-667, chain 1 of 2): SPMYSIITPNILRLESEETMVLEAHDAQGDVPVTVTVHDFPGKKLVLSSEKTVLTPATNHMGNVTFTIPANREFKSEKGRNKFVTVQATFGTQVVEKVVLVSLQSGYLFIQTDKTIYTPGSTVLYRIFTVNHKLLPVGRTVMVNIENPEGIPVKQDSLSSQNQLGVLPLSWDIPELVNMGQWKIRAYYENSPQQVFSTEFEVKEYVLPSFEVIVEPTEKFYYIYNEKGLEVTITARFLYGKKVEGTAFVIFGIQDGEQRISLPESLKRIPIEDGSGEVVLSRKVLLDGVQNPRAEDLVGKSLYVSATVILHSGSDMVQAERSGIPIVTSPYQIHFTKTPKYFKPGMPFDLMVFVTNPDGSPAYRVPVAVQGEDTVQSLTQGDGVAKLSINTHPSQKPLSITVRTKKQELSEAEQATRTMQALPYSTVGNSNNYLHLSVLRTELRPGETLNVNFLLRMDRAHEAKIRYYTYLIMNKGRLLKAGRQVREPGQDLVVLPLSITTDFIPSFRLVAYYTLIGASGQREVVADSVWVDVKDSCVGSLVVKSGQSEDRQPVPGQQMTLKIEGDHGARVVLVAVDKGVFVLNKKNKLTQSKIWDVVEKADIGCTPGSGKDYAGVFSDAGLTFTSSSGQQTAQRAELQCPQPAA
Chain of C3u C3u (Homo sapiens) (P01024 672-1663, chain 2 of 2): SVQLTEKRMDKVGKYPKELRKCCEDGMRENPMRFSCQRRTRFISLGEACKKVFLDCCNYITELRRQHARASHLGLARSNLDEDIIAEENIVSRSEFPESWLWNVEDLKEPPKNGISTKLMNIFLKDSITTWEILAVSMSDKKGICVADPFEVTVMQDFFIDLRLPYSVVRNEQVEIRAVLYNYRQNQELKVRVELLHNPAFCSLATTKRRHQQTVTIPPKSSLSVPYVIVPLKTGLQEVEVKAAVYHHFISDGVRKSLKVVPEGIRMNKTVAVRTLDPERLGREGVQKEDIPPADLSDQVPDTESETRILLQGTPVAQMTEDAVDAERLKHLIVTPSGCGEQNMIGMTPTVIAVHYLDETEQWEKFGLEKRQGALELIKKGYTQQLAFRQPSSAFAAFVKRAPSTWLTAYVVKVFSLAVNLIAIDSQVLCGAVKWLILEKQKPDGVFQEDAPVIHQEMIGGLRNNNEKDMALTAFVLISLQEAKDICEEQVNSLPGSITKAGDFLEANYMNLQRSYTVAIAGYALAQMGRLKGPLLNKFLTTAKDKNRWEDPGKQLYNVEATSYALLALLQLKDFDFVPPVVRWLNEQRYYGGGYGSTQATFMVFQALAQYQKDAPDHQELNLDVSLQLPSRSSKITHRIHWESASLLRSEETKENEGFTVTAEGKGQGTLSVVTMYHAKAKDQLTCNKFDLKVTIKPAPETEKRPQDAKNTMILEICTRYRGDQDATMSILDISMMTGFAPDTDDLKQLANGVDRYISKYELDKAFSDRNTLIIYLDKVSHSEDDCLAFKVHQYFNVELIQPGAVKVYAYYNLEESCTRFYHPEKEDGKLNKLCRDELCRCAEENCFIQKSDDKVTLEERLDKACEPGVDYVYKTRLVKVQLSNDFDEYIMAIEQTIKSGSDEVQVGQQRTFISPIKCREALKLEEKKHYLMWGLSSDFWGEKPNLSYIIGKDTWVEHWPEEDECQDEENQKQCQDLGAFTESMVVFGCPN

Kd (C3b C3b (Homo sapiens)) | Kd (C3u C3u (Homo sapiens)) [µM] | Kd [1] [µM] | Kd [2] [µM] | Substance
5.4 µM and 0.54 µM | – | – | – | Complement factor H SCR-19/20 (from UniProt P08603)
1.1 µM | 0.59 | 28 | 4.2 | Complement factor H (from UniProt P08603)
11.7 µM and 11 µM | – | – | – | Complement factor H SCR-1/4 SCR-1/4 (from UniProt P08603)
